Laboratory results: patent US20210079067A1 (US Dept. of Health and Human Services, published 2021)

B1: S1-4-A09 Fab (Fab, V domains shown)
VH: QVQLQESGPGLVKPSETLSLTCVVSGGILSSFYWNWIRQPPGKGLEWIGNIYYSGSPNYNASFQSRVAISVDTSKNQISLNLKSVTAADTAMYYCVRASRAYLWGSYRPTALDLWGQGSLVTVSS
VL: SYELTQPPSVSVSPGQTATITCSGDKLGDKYTSWFQQRPGQSPLLVIYQDNKRPSGLPARFSGSNSGNTATLTISGTQAMDEADYLCQVWDSGAVFGGGTKLTVL
B2: mAb100 (antibody, V domains shown)
VH: QVQLQESGPGLVKPSDTLSLTCTVSGGSLSSFYWSWIRQPPGKGLEWIGYIYYSGSPNYSPSLESRVTMSVDTTRNQISLKLDSVTAADTAVYYCVRASRSYYWGSYRPTAFDSWGQGTLVTVSS
VL: SYELTQPLSVSVSPGQTAIFTCSGDNLGDKYVCWFQQRPGQSPMLLIYQDNKRPSGIPERFSGSNSGNTATLTISGTQSTDEADYYCQTWDSTVVFGGGTKLTVL

How the values were obtained:
[1] = molecular target: T1, mucin-domain-deleted Zaire ebolavirus GP (Zaire ebolavirus, UniProt Q05320 33-650); experiment: biolayer interferometry, Fab, pH 7.4, 1:1 model; Fab, BLI, pH 7.4
[2] = molecular target: T1, mucin-domain-deleted Zaire ebolavirus GP; experiment: pH 7.4
[3] = molecular target: T1, mucin-domain-deleted Zaire ebolavirus GP; experiment: pH 5.3
[4] = molecular target: T1, mucin-domain-deleted Zaire ebolavirus GP; experiment: biolayer interferometry, Fab, pH 5.3, 1:1 model; Fab, BLI, pH 5.3
[5] = molecular target: T1, mucin-domain-deleted Zaire ebolavirus GP; experiment: biolayer interferometry, mAb, pH 7.4, 1:2 bivalent model
[6] = molecular target: T1, mucin-domain-deleted Zaire ebolavirus GP; experiment: biolayer interferometry, mAb, pH 7.4, 1:2 bivalent model (apparent)
[7] = molecular target: T1, mucin-domain-deleted Zaire ebolavirus GP

Binder | Kd [1] [nM] | koff [2] [s⁻¹] | kon [2] [M⁻¹ s⁻¹] | koff [3] [s⁻¹] | kon [3] [M⁻¹ s⁻¹] | Kd [4] [nM] | koff [5] [s⁻¹] | kon [5] [M⁻¹ s⁻¹] | Kd [6] [nM] | EC50 (read off the curve) [7] [µg/mL]
B1 | 1.04 | 0.000136 | 131000 | 0.000179 | 85200 | 2.1 |  |  |  | 
B2 |  |  |  |  |  |  | 8.91e-06 | 143000 | 0.0628 | ~0.01
